# According to patent US7501267B2, “Gene sequence of L-rhamnose isomerase having new catalytic function and use thereof” (Rare Sugar Production Technical Research Laboratories, LLC, priority 2003, dated 2009):
# Like-named read-outs stand apart in the source and are kept apart here.
# Key:
# [1] = system: L-rhamnose isomerase produced by Pseudomonas stutzerii LL172; test: Effect of a chelating agent or metal ion on L-rhamnose isomerase activity; format: biochemical; conditions: for Effect of a chelating agent on activity: coexisting during the measurement of activity
# [2] = system: L-rhamnose isomerase produced by Pseudomonas stutzerii LL172; conditions: Non-Patent Document 3, cited from earlier work; for Effect of a chelating agent on activity: coexisting during the measurement of activity
# [3] = substrate: OC[C@H]1OC(O)[C@@H](O)[C@H](O)[C@@H]1O; test: Km and Vmax of purified L-rhamnose isomerase for a variety of substrates; format: biochemical, Pseudomonas stutzeri; conditions: other: purified enzyme without immobilizing; pH 7.0
# Procedure: (§1) An enzyme was obtained with the same conditions as those of Example 5. The measurement of Km and Vmax was carried out using the enzyme without immobilizing.
# (§2) The cells were washed twice with 0.05 M sodium phosphate buffer (pH 7.0). The washed cells were ground with alumina powder and subjected to centrifugation to remove insoluble substances together with alumina powder, whereby a crude enzyme solution was obtained. The obtained crude enzyme solution was subjected to affinity chromatography using an Ni-NTA column to purify the enzyme, whereby a pure enzyme was obtained. After the enzyme was dialyzed against ultrapure water, lyophilization was carried out, whereby pure powder enzyme was obtained. By allowing 20 mg of the enzyme to be adsorbed on 1 g of Chitopearl resin, immobilized enzyme was prepared.
# [4] = substrate: C[C@@H]1OC(O)[C@H](O)[C@H](O)[C@H]1O; test: as above; format: biochemical, Pseudomonas stutzeri; conditions: other: purified enzyme without immobilizing; pH 7.0
# Procedure: as §1, §2
# [5] = substrate: OC[C@H]1OC(O)[C@H](O)[C@H](O)[C@@H]1O; test: as above; format: biochemical, Pseudomonas stutzeri; conditions: other: purified enzyme without immobilizing; pH 7.0
# Procedure: as §1, §2
# [6] = substrate: OC[C@@H]1OC(O)[C@H](O)[C@H](O)[C@H]1O; test: as above; format: biochemical, Pseudomonas stutzeri; conditions: other: purified enzyme without immobilizing; pH 7.0
# Procedure: as §1, §2
# [7] = substrate: OC1OC[C@@H](O)[C@@H](O)[C@H]1O; test: cells, lysate or membranes named; conditions: other: purified enzyme without immobilizing; pH 7.0
# [8] = substrate: OC1OC[C@H](O)[C@@H](O)[C@H]1O; test: cells, lysate or membranes named; conditions: other: purified enzyme without immobilizing; pH 7.0
# [9] = substrate: OC1OC[C@H](O)[C@H](O)[C@H]1O; test: cells, lysate or membranes named; conditions: other: purified enzyme without immobilizing; pH 7.0
# [10] = cited from earlier work
molecule,measurement,setting,value
O=C(O)CN(CCOCCOCCN(CC(=O)O)CC(=O)O)CC(=O)O [EGTA],Effect of a chelating agent on activity,[1],hardly inhibited
same,Effect of a chelating agent on activity,[2],hardly inhibited
[Co+2] [cobalt ion],Activity inhibited by metal ion,[1]; 1 mM,About 30%
same,Activity inhibited by metal ion,[2]; 1 mM,About 30%
O=C(O)CN(CCN(CC(=O)O)CC(=O)O)CC(=O)O [EDTA],Effect of a chelating agent on activity,[1],hardly inhibited
same,Effect of a chelating agent on activity,[2],hardly inhibited
L-rhamnose isomerase derived from P. stutzeri (Stutzerimonas stutzeri) (protein) MAEFRIAQDVVARENDRRASALKEDYEALGANLARRGVDIEAVTAKVEKFFVAVPSWGVGTGGTRFARFPGTGEPRGIFDKLDDCAVIQQLTRATPNVSLHIPWDKADPKELKARGDALGLGFDAMNSNTFSDAPGQAHSYKYGSLSHTDAATRAQAVEHNLECIEIGKAIGSKALTVWIGDGSNFPGQSNFTRAFERYLSAMAEIYKGLPDDWKLFSEHKMYEPAFYSTVVQDWGTNYLIAQTLGPKAQCLVDLGHHAPNTNIEMIVARLIQFGKLGGFHFNDSKYGDDDLDAGAIEPYRLFLVFNELVDAEARGVKGFHPAHMIDQSHNVTDPIESLINSANEIRRAYAQALLVDRAALSGYQEDNDALMATETLKRAYRTDVEPILAEARRRTGGAVDPVATYRASGYRARVAAERPASVAGGGGII,Km,[3],71 mM
same,Vmax,[3],0.01 µmol/min/mg
same,Km,[4],11.9 mM
same,Vmax,[4],238 µmol/min/mg
same,Km,[5],42 mM
same,Vmax,[5],6.76 µmol/min/mg
same,Km,[6],55.5 mM
same,Vmax,[6],139 µmol/min/mg
same,Km,[7],38.5 mM
same,Vmax,[7],21.4 µmol/min/mg
same,Km,[8],61.7 mM
same,Vmax,[8],123 µmol/min/mg
same,Km,[9],2.35 mM
same,Vmax,[9],0.061 µmol/min/mg
same,Optimal pH,,9.0
same,Optimal temperature,,60 °C
same,"Temperature stability, activity remaining",10 min,≥ 90%
same,"Temperature stability, activity remaining",[10]; 10 min,≥ 90%
same,Optimal pH,[10]; Non-Patent Document 3,9.0
same,Optimal temperature,[10]; Non-Patent Document 3,60 °C
